Source: patent US20260242419A1, “A CYCLIC PEPTIDE FOR TRAPPING INTERLEUKIN-1 BETA” (Merck Sharp & Dohme LLC, priority 2023, published 2026)
Starred links: 1 amine or outer side, 2 acyl side, 3 side chain; linkers in the order of their positions; H or OH if unused. Non-standard residues stand in square brackets, D forms with d. dProc3Bn4Pyrim2NMe = (2R,3S)-3-[[4-[2-(methylamino)pyrimidin-5-yl]phenyl]methyl]pyrrolidine-2-carboxylic acid, CNc1ncc(-c2ccc(C[C@H]3CCN([*:1])[C@H]3C(=O)[*:2])cc2)cn1; dProc3Bn4Pyrim2NH2 = (2R,3S)-3-[[4-(2-aminopyrimidin-5-yl)phenyl]methyl]pyrrolidine-2-carboxylic acid, Nc1ncc(-c2ccc(C[C@H]3CCN([*:1])[C@H]3C(=O)[*:2])cc2)cn1; dProc3Bn4Pyraz5NH2 = (2R,3S)-3-[[4-(5-aminopyrazin-2-yl)phenyl]methyl]pyrrolidine-2-carboxylic acid, Nc1cnc(-c2ccc(C[C@H]3CCN([*:1])[C@H]3C(=O)[*:2])cc2)cn1; dProc3Bn4Pyrim = (2R,3S)-3-[(4-pyrimidin-5-ylphenyl)methyl]pyrrolidine-2-carboxylic acid, O=C([C@H]1[C@@H](Cc2ccc(-c3cncnc3)cc2)CCN1[*:1])[*:2]; dProc3Bn4Pyrz = (2R,3S)-3-[(4-pyridazin-4-ylphenyl)methyl]pyrrolidine-2-carboxylic acid, O=C([C@H]1[C@@H](Cc2ccc(-c3ccnnc3)cc2)CCN1[*:1])[*:2]; dProc3Bn4Pyr3 = (2R,3S)-3-[[4-(3-pyridyl)phenyl]methyl]pyrrolidine-2-carboxylic acid, O=C([C@H]1[C@@H](Cc2ccc(-c3cccnc3)cc2)CCN1[*:1])[*:2]; dProc3Bn4Pyr4 = (2R,3S)-3-[[4-(4-pyridyl)phenyl]methyl]pyrrolidine-2-carboxylic acid, O=C([C@H]1[C@@H](Cc2ccc(-c3ccncc3)cc2)CCN1[*:1])[*:2]; Trp(βS-Me,4-F) = C[C@@H](c1c[nH]c2cccc(F)c12)[C@H](N)C(=O)O; Bip(4'-COOH) = N[C@@H](Cc1ccc(-c2ccc(C(=O)O)cc2)cc1)C(=O)O; dPro(4R-Bzl(4-F)) = O=C(O)[C@H]1C[C@@H](Cc2ccc(F)cc2)CN1; Ala(pyrimidin-5-yl) = N[C@@H](Cc1cncnc1)C(=O)O; Phe(4-COOH) = N[C@@H](Cc1ccc(C(=O)O)cc1)C(=O)O; Pro(cis-4-F) = O=C(O)[C@@H]1C[C@H](F)CN1; 4Pal = N[C@@H](Cc1ccncc1)C(=O)O; Dab = NCC[C@H](N)C(=O)O; Aib = CC(C)(N)C(=O)O

B1: SEQ ID NO: 6 (peptide)
peptide: cyclo([Bip(4'-COOH)][4Pal][Phe(4-COOH)]G[Pro(cis-4-F)][Trp(βS-Me,4-F)][Aib]AW[Aib][Ala(pyrimidin-5-yl)]Q[Dab]G[dPro(4R-Bzl(4-F))])
SMILES: C[C@@H]1NC(=O)C(C)(C)NC(=O)[C@H]([C@@H](C)c2c[nH]c3cccc(F)c23)NC(=O)[C@@H]2C[C@H](F)CN2C(=O)CNC(=O)[C@H](Cc2ccc(C(=O)O)cc2)NC(=O)[C@H](Cc2ccncc2)NC(=O)[C@H](Cc2ccc(-c3ccc(C(=O)O)cc3)cc2)NC(=O)[C@H]2C[C@@H](Cc3ccc(F)cc3)CN2C(=O)CNC(=O)[C@H](CCN)NC(=O)[C@H](CCC(N)=O)NC(=O)[C@H](Cc2cncnc2)NC(=O)C(C)(C)NC(=O)[C@H](Cc2c[nH]c3ccccc23)NC1=O
B2: SEQ ID NO: 53 (peptide)
peptide: cyclo([Bip(4'-COOH)][4Pal][Phe(4-COOH)]G[Pro(cis-4-F)][Trp(βS-Me,4-F)][Aib]EW[Aib][Ala(pyrimidin-5-yl)]Q[Dab]G[dProc3Bn4Pyrim])
SMILES: C[C@@H](c1c[nH]c2cccc(F)c12)[C@@H]1NC(=O)[C@@H]2C[C@H](F)CN2C(=O)CNC(=O)[C@H](Cc2ccc(C(=O)O)cc2)NC(=O)[C@H](Cc2ccncc2)NC(=O)[C@H](Cc2ccc(-c3ccc(C(=O)O)cc3)cc2)NC(=O)[C@H]2[C@@H](Cc3ccc(-c4cncnc4)cc3)CCN2C(=O)CNC(=O)[C@H](CCN)NC(=O)[C@H](CCC(N)=O)NC(=O)[C@H](Cc2cncnc2)NC(=O)C(C)(C)NC(=O)[C@H](Cc2c[nH]c3ccccc23)NC(=O)[C@H](CCC(=O)O)NC(=O)C(C)(C)NC1=O
B3: SEQ ID NO: 58 (peptide)
peptide: cyclo([Bip(4'-COOH)][4Pal][Phe(4-COOH)]G[Pro(cis-4-F)][Trp(βS-Me,4-F)][Aib]EW[Aib][Ala(pyrimidin-5-yl)]Q[Dab]G[dProc3Bn4Pyrz])
SMILES: C[C@@H](c1c[nH]c2cccc(F)c12)[C@@H]1NC(=O)[C@@H]2C[C@H](F)CN2C(=O)CNC(=O)[C@H](Cc2ccc(C(=O)O)cc2)NC(=O)[C@H](Cc2ccncc2)NC(=O)[C@H](Cc2ccc(-c3ccc(C(=O)O)cc3)cc2)NC(=O)[C@H]2[C@@H](Cc3ccc(-c4ccnnc4)cc3)CCN2C(=O)CNC(=O)[C@H](CCN)NC(=O)[C@H](CCC(N)=O)NC(=O)[C@H](Cc2cncnc2)NC(=O)C(C)(C)NC(=O)[C@H](Cc2c[nH]c3ccccc23)NC(=O)[C@H](CCC(=O)O)NC(=O)C(C)(C)NC1=O
B4: SEQ ID NO: 55 (peptide)
peptide: cyclo([Bip(4'-COOH)][4Pal][Phe(4-COOH)]G[Pro(cis-4-F)][Trp(βS-Me,4-F)][Aib]EW[Aib][Ala(pyrimidin-5-yl)]Q[Dab]G[dProc3Bn4Pyr4])
SMILES: C[C@@H](c1c[nH]c2cccc(F)c12)[C@@H]1NC(=O)[C@@H]2C[C@H](F)CN2C(=O)CNC(=O)[C@H](Cc2ccc(C(=O)O)cc2)NC(=O)[C@H](Cc2ccncc2)NC(=O)[C@H](Cc2ccc(-c3ccc(C(=O)O)cc3)cc2)NC(=O)[C@H]2[C@@H](Cc3ccc(-c4ccncc4)cc3)CCN2C(=O)CNC(=O)[C@H](CCN)NC(=O)[C@H](CCC(N)=O)NC(=O)[C@H](Cc2cncnc2)NC(=O)C(C)(C)NC(=O)[C@H](Cc2c[nH]c3ccccc23)NC(=O)[C@H](CCC(=O)O)NC(=O)C(C)(C)NC1=O
B5: SEQ ID NO: 57 (peptide)
peptide: cyclo([Bip(4'-COOH)][4Pal][Phe(4-COOH)]G[Pro(cis-4-F)][Trp(βS-Me,4-F)][Aib]EW[Aib][Ala(pyrimidin-5-yl)]Q[Dab]G[dProc3Bn4Pyraz5NH2])
SMILES: C[C@@H](c1c[nH]c2cccc(F)c12)[C@@H]1NC(=O)[C@@H]2C[C@H](F)CN2C(=O)CNC(=O)[C@H](Cc2ccc(C(=O)O)cc2)NC(=O)[C@H](Cc2ccncc2)NC(=O)[C@H](Cc2ccc(-c3ccc(C(=O)O)cc3)cc2)NC(=O)[C@H]2[C@@H](Cc3ccc(-c4cnc(N)cn4)cc3)CCN2C(=O)CNC(=O)[C@H](CCN)NC(=O)[C@H](CCC(N)=O)NC(=O)[C@H](Cc2cncnc2)NC(=O)C(C)(C)NC(=O)[C@H](Cc2c[nH]c3ccccc23)NC(=O)[C@H](CCC(=O)O)NC(=O)C(C)(C)NC1=O
B6: SEQ ID NO: 56 (peptide)
peptide: cyclo([Bip(4'-COOH)][4Pal][Phe(4-COOH)]G[Pro(cis-4-F)][Trp(βS-Me,4-F)][Aib]EW[Aib][Ala(pyrimidin-5-yl)]Q[Dab]G[dProc3Bn4Pyr3])
SMILES: C[C@@H](c1c[nH]c2cccc(F)c12)[C@@H]1NC(=O)[C@@H]2C[C@H](F)CN2C(=O)CNC(=O)[C@H](Cc2ccc(C(=O)O)cc2)NC(=O)[C@H](Cc2ccncc2)NC(=O)[C@H](Cc2ccc(-c3ccc(C(=O)O)cc3)cc2)NC(=O)[C@H]2[C@@H](Cc3ccc(-c4cccnc4)cc3)CCN2C(=O)CNC(=O)[C@H](CCN)NC(=O)[C@H](CCC(N)=O)NC(=O)[C@H](Cc2cncnc2)NC(=O)C(C)(C)NC(=O)[C@H](Cc2c[nH]c3ccccc23)NC(=O)[C@H](CCC(=O)O)NC(=O)C(C)(C)NC1=O
B7: SEQ ID NO: 59 (peptide)
peptide: cyclo([Bip(4'-COOH)][4Pal][Phe(4-COOH)]G[Pro(cis-4-F)][Trp(βS-Me,4-F)][Aib]EW[Aib][Ala(pyrimidin-5-yl)]Q[Dab]G[dProc3Bn4Pyrim2NH2])
SMILES: C[C@@H](c1c[nH]c2cccc(F)c12)[C@@H]1NC(=O)[C@@H]2C[C@H](F)CN2C(=O)CNC(=O)[C@H](Cc2ccc(C(=O)O)cc2)NC(=O)[C@H](Cc2ccncc2)NC(=O)[C@H](Cc2ccc(-c3ccc(C(=O)O)cc3)cc2)NC(=O)[C@H]2[C@@H](Cc3ccc(-c4cnc(N)nc4)cc3)CCN2C(=O)CNC(=O)[C@H](CCN)NC(=O)[C@H](CCC(N)=O)NC(=O)[C@H](Cc2cncnc2)NC(=O)C(C)(C)NC(=O)[C@H](Cc2c[nH]c3ccccc23)NC(=O)[C@H](CCC(=O)O)NC(=O)C(C)(C)NC1=O
B8: SEQ ID NO: 54 (peptide)
peptide: cyclo([Bip(4'-COOH)][4Pal][Phe(4-COOH)]G[Pro(cis-4-F)][Trp(βS-Me,4-F)][Aib]EW[Aib][Ala(pyrimidin-5-yl)]Q[Dab]G[dProc3Bn4Pyrim2NMe])
SMILES: CNc1ncc(-c2ccc(C[C@H]3CCN4C(=O)CNC(=O)[C@H](CCN)NC(=O)[C@H](CCC(N)=O)NC(=O)[C@H](Cc5cncnc5)NC(=O)C(C)(C)NC(=O)[C@H](Cc5c[nH]c6ccccc56)NC(=O)[C@H](CCC(=O)O)NC(=O)C(C)(C)NC(=O)[C@H]([C@@H](C)c5c[nH]c6cccc(F)c56)NC(=O)[C@@H]5C[C@H](F)CN5C(=O)CNC(=O)[C@H](Cc5ccc(C(=O)O)cc5)NC(=O)[C@H](Cc5ccncc5)NC(=O)[C@H](Cc5ccc(-c6ccc(C(=O)O)cc6)cc5)NC(=O)[C@@H]34)cc2)cn1

target: Recombinant human IL-1β (BioLegend 579404) (human, UniProt P01584 117-269); test: cell-based or functional assay

MRC5 IC50 [nM]	Binder
0.057	B1
0.018	B2
0.037	B3
0.024	B4
0.019	B5
0.022	B6
0.018	B7
0.021	B8
